Experimental data from US20140271668.

Legend:
[1] = target: lentiviral wild type parkin (expressed in transfected neuroblastoma cells), O60260
[2] = target: T1, non-catalytic mutant T240R parkin (lentiviral), O60260
T1 chain: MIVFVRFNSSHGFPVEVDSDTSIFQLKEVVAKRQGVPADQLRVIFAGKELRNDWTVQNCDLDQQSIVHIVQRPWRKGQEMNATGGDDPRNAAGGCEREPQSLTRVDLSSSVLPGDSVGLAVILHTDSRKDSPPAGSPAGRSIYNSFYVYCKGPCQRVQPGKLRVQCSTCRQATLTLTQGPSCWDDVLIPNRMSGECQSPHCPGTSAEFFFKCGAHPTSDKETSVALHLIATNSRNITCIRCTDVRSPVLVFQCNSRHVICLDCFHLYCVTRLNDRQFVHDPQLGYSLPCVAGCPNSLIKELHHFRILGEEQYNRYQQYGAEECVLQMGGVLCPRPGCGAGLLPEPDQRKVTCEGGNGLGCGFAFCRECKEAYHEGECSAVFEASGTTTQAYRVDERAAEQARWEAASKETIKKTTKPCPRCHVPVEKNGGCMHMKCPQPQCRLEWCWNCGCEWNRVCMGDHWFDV

B1: lentiviral USP13 (expressed in transfected neuroblastoma cells) (protein)
chain: MQRRGALFGMPGGSGGRKMAAGDIGELLVPHMPTIRVPRSGDRVYKNECAFSYDSPNSEGGLYVCMNTFLAFGREHVERHFRKTGQSVYMHLKRHVREKVRGASGGALPKRRNSKIFLDLDTDDDLNSDDYEYEDEAKLVIFPDHYEIALPNIEELPALVTIACDAVLSSKSPYRKQDPDTWENELPVSKYANNLTQLDNGVRIPPSGWKCARCDLRENLWLNLTDGSVLCGKWFFDSSGGNGHALEHYRDMGYPLAVKLGTITPDGADVYSFQEEEPVLDPHLAKHLAHFGIDMLHMHGTENGLQDNDIKLRVSEWEVIQESGTKLKPMYGPGYTGLKNLGNSCYLSSVMQAIFSIPEFQRAYVGNLPRIFDYSPLDPTQDFNTQMTKLGHGLLSGQYSKPPVKSELIEQVMKEEHKPQQNGISPRMFKAFVSKSHPEFSSNRQQDAQEFFLHLVNLVERNRIGSENPSDVFRFLVEERIQCCQTRKVRYTERVDYLMQLPVAMEAATNKDELIAYELTRREAEANRRPLPELVRAKIPFSACLQAFSEPENVDDFWSSALQAKSAGVKTSRFASFPEYLVVQIKKFTFGLDWVPKKFDVSIDMPDLLDINHLRARGLQPGEEELPDISPPIVIPDDSKDRLMNQLIDPSDIDESSVMQLAEMGFPLEACRKAVYFTGNMGAEVAFNWIIVHMEEPDFAEPLTMPGYGGAASAGASVFGASGLDNQPPEEIVAIITSMGFQRNQAIQALRATNNNLERALDWIFSHPEFEEDSDFVIEMENNANANIISEAKPEGPRVKDGSGTYELFAFISHMGTSTMSGHYICHIKKEGRWVIYNDHKVCASERPPKDLGYMYFYRRIPS
For B1, the “parkin ubiquitination (E3LITE ubiquitin ligase ELISA with E1, UbcH7, ATP and WT ubiquitin)” value [1] was “USP13 significantly decreased (36%) parkin ubiquitination”, the “ubiquitinated parkin level (parkin immunoprecipitation and Western blot with anti-ubiquitin antibodies)” value [1] was “decreased ubiquitinated parkin level when parkin was co-expressed with USP13” and the “level of ubiquitinated proteins (parkin immunoprecipitation and Western blot with anti-ubiquitin antibodies)” value [2] was “the level of ubiquitinated proteins when mutant T240R parkin was expressed was unaltered in the presence or absence of USP13”.
